Source: PMC4536007, “Modulation of the Activity of Mycobacterium tuberculosis LipY by Its PE Domain” (PLoS ONE, 2015)

B1: LipY (enzyme)
chain: MVSYVVALPEVMSAAATDVASIGSVVATASQGVAGATTTVLAAAEDEVSAAIAALFSGHGQDYQALSAQLAVFHERFVQALTGAAKGYAAAELANASLLQSEFASGIGNGFATIHQEIQRAPTALAAGFTQVPPFAAAQAGIFTGTPSGAAGFDIASLWPVKPLLSLSALETHFAIPNNPLLALIASDIPPLSWFLGNSPPPLLNSLLGQTVQYTTYDGMSVVQITPAHPTGEYVVAIHGGAFILPPSIFHWLNYSVTAYQTGATVQVPIYPLVQEGGTAGTVVPAMAGLISTQIAQHGVSNVSVVGDSAGGNLALAAAQYMVSQGNPVPSSMVLLSPWLDVGTWQISQAWAGNLAVNDPLVSPLYGSLNGLPPTYVYSGSLDPLAQQAVVLEHTAVVQGAPFSFVLAPWQIHDWILLTPWGLLSWPQINQQLGIAA
notes: LipY, PE protein with a C-terminal triglyceride lipase domain, Mycobacterium tuberculosis; 45 kDa; full length (LipYΔPE ends at residue 437); also called full length LipY; not shown: His tag, C-terminal, kept
B2: PE domain of LipY (domain or fragment)
chain: MVSYVVALPEVMSAAATDVASIGSVVATASQGVAGATTTVLAAAEDEVSAAIAALFSGHGQDYQALSAQLAVFHERFVQALTGAAKGYAAAELANASLLQSEFASGIGNGFATIHQEIQRAPTALAAGFTQVPPFAAAQAGIFTGTPSG
notes: LipY, Mycobacterium tuberculosis, residues 1-149 (PE domain with the linker up to the cleavage site); not shown: His tag, C-terminal, kept

Target: the molecule itself
Test: SEC; […] (20 mM HEPES pH 7, 100 mM NaCl, 10% glycerol); […]

Row | Protein | binding result
1 | B1 | binds
2 | B2 | binds
